# Source: PMC7367873, “Dissecting the sequence determinants for dephosphorylation by the catalytic subunits of phosphatases PP1 and PP2A” (Nature Communications, 2020)
# Assays:
# [1] = system: GFP-14-3-3β and its binding proteins; test: GFP-14-3-3β co-IP with LC-MS/MS label-free quantification, untreated versus PP1c-treated; parameters: species or system human; conditions: pairwise comparison PP1 vs untreated, 3 replicates each
# [2] = system: GFP-14-3-3β; test: GFP-14-3-3β co-IP with LC-MS/MS, untreated GFP-14-3-3β versus GFP control (14-3-3 interactome); assay type: binding, human; conditions: 3 replicates each
# [3] = log2 difference, label-free quantification
# [4] = log2 difference, pairwise comparison untreated vs GFP, label-free quantification
# [5] = student's t-test, LC-MS/MS label-free quantification
# [6] = pairwise comparison untreated GFP-14-3-3β vs GFP, student's t-test, LC-MS/MS label-free quantification
molecule,measurement,setting,value
"PA2G4 (protein, UniProt Q9UQ80 2-394, looked up) Proliferation-associated …: SGEDEQQEQTIAEDLVVTKYKMGGDIANRVLRSLVEASSSGVSVLSLCEKGDAMIMEETGKIFKKEKEMKKGIAFPTSISVNNCVCHFSPLKSDQDYILKEGDLVKIDLGVHVDGFIANVAHTFVVDVAQGTQVTGRKADVIKAAHLCAEAALRLVKPGNQNTQVTEAWNKVAHSFNCTPIEGMLSHQLKQHVIDGEKTIIQNPTDQQKKDHEKAEFEVHEVYAVDVLVSSGEGKAKDAGQRTTIYKRDPSKQYGLKMKTSRAFFSEVERRFDAMPFTLRAFEDEKKARMGVVECAKHELLQPFNVLYEKEGEFVAQFKFTVLLMPNGPMRITSGPFEPDLYKSEMEVQDAELKALLQSSASRKTQKKKKKKASKTAENATSGETLEENEAGD","Difference (log2), PP1 vs untreated",[1]; [3],1.519
same,"Difference (log2), untreated vs GFP",[2]; [4],0.3875
"TRAM1 (protein, UniProt Q15629 1-374, looked up) Translocating …: MAIRKKSTKSPPVLSHEFVLQNHADIVSCVAMVFLLGLMFEITAKASIIFVTLQYNVTLPATEEQATESVSLYYYGIKDLATVFFYMLVAIIIHAVIQEYMLDKINRRMHFSKTKHSKFNESGQLSAFYLFACVWGTFILISENYISDPTILWRAYPHNLMTFQMKFFYISQLAYWLHAFPELYFQKTKKEDIPRQLVYIGLYLFHIAGAYLLNLNHLGLVLLVLHYFVEFLFHISRLFYFSNEKYQKGFSLWAVLFVLGRLLTLILSVLTVGFGLARAENQKLDFSTGNFNVLAVRIAVLASICVTQAFMMWKFINFQLRRWREHSAFQAPAVKKKPTVTKGRSSKKGTENGVNGTLTSNVADSPRNKKEKSS","Difference (log2), PP1 vs untreated",[1]; [3],1.521
same,"Difference (log2), untreated vs GFP",[2]; [4],0.1201
"GIT1 (protein, UniProt Q9Y2X7 1-761, looked up) ARF GTPase-activating protein …: MSRKGPRAEVCADCSAPDPGWASISRGVLVCDECCSVHRSLGRHISIVKHLRHSAWPPTLLQMVHTLASNGANSIWEHSLLDPAQVQSGRRKANPQDKVHPIKSEFIRAKYQMLAFVHKLPCRDDDGVTAKDLSKQLHSSVRTGNLETCLRLLSLGAQANFFHPEKGTTPLHVAAKAGQTLQAELLVVYGADPGSPDVNGRTPIDYARQAGHHELAERLVECQYELTDRLAFYLCGRKPDHKNGHYIIPQMADSLDLSELAKAAKKKLQALSNRLFEELAMDVYDEVDRRENDAVWLATQNHSTLVTERSAVPFLPVNPEYSATRNQGRQKLARFNAREFATLIIDILSEAKRRQQGKSLSSPTDNLELSLRSQSDLDDQHDYDSVASDEDTDQEPLRSTGATRSNRARSMDSSDLSDGAVTLQEYLELKKALATSEAKVQQLMKVNSSLSDELRRLQREIHKLQAENLQLRQPPGPVPTPPLPSERAEHTPMAPGGSTHRRDRQAFSMYEPGSALKPFGGPPGDELTTRLQPFHSTELEDDAIYSVHVPAGLYRIRKGVSASAVPFTPSSPLLSCSQEGSRHTSKLSRHGSGADSDYENTQSGDPLLGLEGKRFLELGKEEDFHPELESLDGDLDPGLPSTEDVILKTEQVTKNIQELLRAAQEFKHDSFVPCSEKIHLAVTEMASLFPKRPALEPVRSSLRLLNASAYRLQSECRKTVPPEPGAPVDFQLLTQQVIQCAYDIAKAAKQLVTITTREKKQ","Difference (log2), PP1 vs untreated",[1]; [5],-4.417 log2
same,"Difference (log2), untreated vs GFP",[2]; [6],5.06 log2
"EIF4E2 (protein, UniProt O60573 1-245, looked up) Eukaryotic translation …: MNNKFDALKDDDSGDHDQNEENSTQKDGEKEKTERDKNQSSSKRKAVVPGPAEHPLQYNYTFWYSRRTPGRPTSSQSYEQNIKQIGTFASVEQFWRFYSHMVRPGDLTGHSDFHLFKEGIKPMWEDDANKNGGKWIIRLRKGLASRCWENLILAMLGEQFMVGEEICGAVVSVRFQEDIISIWNKTASDQATTARIRDTLRRVLNLPPNTIMEYKTHTDSIKMPGRLGPQRLLFQNLWKPRLNVP","Difference (log2), PP1 vs untreated",[1]; [5],-4.306 log2
same,"Difference (log2), untreated vs GFP",[2]; [6],3.4457 log2
"RAE1 (protein, UniProt P78406 1-368, looked up) mRNA export factor RAE1: MSLFGTTSGFGTSGTSMFGSATTDNHNPMKDIEVTSSPDDSIGCLSFSPPTLPGNFLIAGSWANDVRCWEVQDSGQTIPKAQQMHTGPVLDVCWSDDGSKVFTASCDKTAKMWDLSSNQAIQIAQHDAPVKTIHWIKAPNYSCVMTGSWDKTLKFWDTRSSNPMMVLQLPERCYCADVIYPMAVVATAERGLIVYQLENQPSEFRRIESPLKHQHRCVAIFKDKQNKPTGFALGSIEGRVAIHYINPPNPAKDNFTFKCHRSNGTNTSAPQDIYAVNGIAFHPVHGTLATVGSDGRFSFWDKDARTKLKTSEQLDQPISACCFNHNGNIFAYASSYDWSKGHEFYNPQKKNYIFLRNAAEELKPRNKK","Difference (log2), PP1 vs untreated",[1]; [5],-4.214 log2
same,"Difference (log2), untreated vs GFP",[2]; [6],3.4084 log2
"USP8 (protein, UniProt P40818 1-1118, looked up) Ubiquitin carboxyl-terminal …: MPAVASVPKELYLSSSLKDLNKKTEVKPEKISTKSYVHSALKIFKTAEECRLDRDEERAYVLYMKYVTVYNLIKKRPDFKQQQDYFHSILGPGNIKKAVEEAERLSESLKLRYEEAEVRKKLEEKDRQEEAQRLQQKRQETGREDGGTLAKGSLENVLDSKDKTQKSNGEKNEKCETKEKGAITAKELYTMMTDKNISLIIMDARRMQDYQDSCILHSLSVPEEAISPGVTASWIEAHLPDDSKDTWKKRGNVEYVVLLDWFSSAKDLQIGTTLRSLKDALFKWESKTVLRNEPLVLEGGYENWLLCYPQYTTNAKVTPPPRRQNEEVSISLDFTYPSLEESIPSKPAAQTPPASIEVDENIELISGQNERMGPLNISTPVEPVAASKSDVSPIIQPVPSIKNVPQIDRTKKPAVKLPEEHRIKSESTNHEQQSPQSGKVIPDRSTKPVVFSPTLMLTDEEKARIHAETALLMEKNKQEKELRERQQEEQKEKLRKEEQEQKAKKKQEAEENEITEKQQKAKEEMEKKESEQAKKEDKETSAKRGKEITGVKRQSKSEHETSDAKKSVEDRGKRCPTPEIQKKSTGDVPHTSVTGDSGSGKPFKIKGQPESGILRTGTFREDTDDTERNKAQREPLTRARSEEMGRIVPGLPSGWAKFLDPITGTFRYYHSPTNTVHMYPPEMAPSSAPPSTPPTHKAKPQIPAERDREPSKLKRSYSSPDITQAIQEEEKRKPTVTPTVNRENKPTCYPKAEISRLSASQIRNLNPVFGGSGPALTGLRNLGNTCYMNSILQCLCNAPHLADYFNRNCYQDDINRSNLLGHKGEVAEEFGIIMKALWTGQYRYISPKDFKITIGKINDQFAGYSQQDSQELLLFLMDGLHEDLNKADNRKRYKEENNDHLDDFKAAEHAWQKHKQLNESIIVALFQGQFKSTVQCLTCHKKSRTFEAFMYLSLPLASTSKCTLQDCLRLFSKEEKLTDNNRFYCSHCRARRDSLKKIEIWKLPPVLLVHLKRFSYDGRWKQKLQTSVDFPLENLDLSQYVIGPKNNLKKYNLFSVSNHYGGLDGGHYTAYCKNAARQRWFKFDDHEVSDISVSSVKSSAAYILFYTSLGPRVTDVAT","Difference (log2), PP1 vs untreated",[1]; [5],-3.991 log2
same,"Difference (log2), untreated vs GFP",[2]; [6],6.726 log2
"EDC3 (protein, UniProt Q96F86 1-508, looked up) Enhancer of mRNA-decapping …: MATDWLGSIVSINCGDSLGVYQGRVSAVDQVSQTISLTRPFHNGVKCLVPEVTFRAGDITELKILEIPGPGDNQHFGDLHQTELGPSGAGCQVGINQNGTGKFVKKPASSSSAPQNIPKRTDVKSQDVAVSPQQQQCSKSYVDRHMESLSQSKSFRRRHNSWSSSSRHPNQATPKKSGLKNGQMKNKDDECFGDDIEEIPDTDFDFEGNLALFDKAAVFEEIDTYERRSGTRSRGIPNERPTRYRHDENILESEPIVYRRIIVPHNVSKEFCTDSGLVVPSISYELHKKLLSVAEKHGLTLERRLEMTGVCASQMALTLLGGPNRLNPKNVHQRPTVALLCGPHVKGAQGISCGRHLANHDVQVILFLPNFVKMLESITNELSLFSKTQGQQVSSLKDLPTSPVDLVINCLDCPENVFLRDQPWYKAAVAWANQNRAPVLSIDPPVHEVEQGIDAKWSLALGLPLPLGEHAGRIYLCDIGIPQQVFQEVGINYHSPFGCKFVIPLHSA","Difference (log2), PP1 vs untreated",[1]; [5],-4.243 log2
same,"Difference (log2), untreated vs GFP",[2]; [6],4.9273 log2
"GLCCI1 (protein, UniProt Q86VQ1 1-547, looked up) Glucocorticoid-induced …: MSTASSSSSSSSSQTPHPPSQRMRRSAAGSPPAVAAAGSGNGAGGGGGVGCAPAAGAGRLLQPIRATVPYQLLRGSQHSPTRPPVAAAAASLGSLPGPGAARGPSPSSPTPPAAAAPAEQAPRAKGRPRRSPESHRRSSSPERRSPGSPVCRADKAKSQQVRTSSTIRRTSSLDTITGPYLTGQWPRDPHVHYPSCMKDKATQTPSCWAEEGAEKRSHQRSASWGSADQLKEQIAKLRQQLQRSKQSSRHSKEKDRQSPLHGNHITISHTQATGSRSVPMPLSNISVPKSSVSRVPCNVEGISPELEKVFIKENNGKEEVSKPLDIPDGRRAPLPAHYRSSSTRSIDTQTPSVQERSSSCSSHSPCVSPFCPPESQDGSPCSTEDLLYDRDKDSGSSSPLPKYASSPKPNNSYMFKREPPEGCERVKVFEEMASRQPISAPLFSCPDKNKVNFIPTGSAFCPVKLLGPLLPASDLMLKNSPNSGQSSALATLTVEQLSSRVSFTSLSDDTSTAGSMEASVQQPSQQQQLLQELQGEDHISAQNYVII","Difference (log2), PP1 vs untreated",[1]; [5],-4.246 log2
same,"Difference (log2), untreated vs GFP",[2]; [6],4.69 log2
"HOMER3 (protein, UniProt Q9NSC5 1-361, looked up) Homer protein homolog 3: MSTAREQPIFSTRAHVFQIDPATKRNWIPAGKHALTVSYFYDATRNVYRIISIGGAKAIINSTVTPNMTFTKTSQKFGQWADSRANTVYGLGFASEQHLTQFAEKFQEVKEAARLAREKSQDGGELTSPALGLASHQVPPSPLVSANGPGEEKLFRSQSADAPGPTERERLKKMLSEGSVGEVQWEAEFFALQDSNNKLAGALREANAAAAQWRQQLEAQRAEAERLRQRVAELEAQAASEVTPTGEKEGLGQGQSLEQLEALVQTKDQEIQTLKSQTGGPREALEAAEREETQQKVQDLETRNAELEHQLRAMERSLEEARAERERARAEVGRAAQLLDVSLFELSELREGLARLAEAAP","Difference (log2), PP1 vs untreated",[1]; [5],-4.512 log2
same,"Difference (log2), untreated vs GFP",[2]; [6],5.445 log2
"PAK4 (protein, UniProt O96013 1-591, looked up) Serine/threonine-protein …: MFGKRKKRVEISAPSNFEHRVHTGFDQHEQKFTGLPRQWQSLIEESARRPKPLVDPACITSIQPGAPKTIVRGSKGAKDGALTLLLDEFENMSVTRSNSLRRDSPPPPARARQENGMPEEPATTARGGPGKAGSRGRFAGHSEAGGGSGDRRRAGPEKRPKSSREGSGGPQESSRDKRPLSGPDVGTPQPAGLASGAKLAAGRPFNTYPRADTDHPSRGAQGEPHDVAPNGPSAGGLAIPQSSSSSSRPPTRARGAPSPGVLGPHASEPQLAPPACTPAAPAVPGPPGPRSPQREPQRVSHEQFRAALQLVVDPGDPRSYLDNFIKIGEGSTGIVCIATVRSSGKLVAVKKMDLRKQQRRELLFNEVVIMRDYQHENVVEMYNSYLVGDELWVVMEFLEGGALTDIVTHTRMNEEQIAAVCLAVLQALSVLHAQGVIHRDIKSDSILLTHDGRVKLSDFGFCAQVSKEVPRRKSLVGTPYWMAPELISRLPYGPEVDIWSLGIMVIEMVDGEPPYFNEPPLKAMKMIRDNLPPRLKNLHKVSPSLKGFLDRLLVRDPAQRATAAELLKHPFLAKAGPPASIVPLMRQNRTR","Difference (log2), PP1 vs untreated",[1]; [5],-4.365 log2
same,"Difference (log2), untreated vs GFP",[2]; [6],5.767 log2
